Measurements as given in PMC10315481.

Molecular target: globupain, wild-type zymogen (proenzyme) (unclassified Archaeoglobus species (metagenome))
Experiment: SEC + AUC; SEC: Superdex 75 10/300 GL, 50 mM potassium phosphate pH 7.0, 150 mM NaCl, 500 uL of globupain at 1 mg/mL, calibrated with proteins of known molecular weight; AUC (p-0016): sedimentation velocity, 20°C, 50,000 rpm, 50 mM potassium phosphate pH 7.0, 150 mM NaCl, 1 mM EDTA, c(s) distribution in …

stoichiometry N: 2
Substance: globupain, wild-type zymogen (proenzyme)
